Assay results as given in patent US9895420.

Target: chimeric-IL-1Ra (IL-1beta propeptide residues 1-120, HindIII-derived Lys-Leu linker, mature IL-1Ra)

B1: neutrophil elastase (Athens Research & Technology) (protein)
chain: IVGGRRARPHAWPFMVSLQLRGGHFCGATLIAPNFVMSAAHCVANVNVRAVRVVLGAHNLSRREPTRQVFAVQRIFENGYDPVNLLNDIVILQLNGSATINANVQVAQLPAQGRRLGNGVQCLAMGWGLLGRNRGIASVLQELNVTVVTSLCRRSNVCTLVRGRQAGVCFGDSGSPLVCNGLIHGIASFVRGGCASGLYPDAFAPVAQFVNWIDSIIQ
cleavage of chimeric-IL-1Ra, Western blot with anti-IL-1Ra antibody: chimeric-IL-1Ra is cleaved to form a ˜20 kDa fragment, comparable in size to IL-1Ra
